Assay results from patent US20190177417A1 (BIOATLA, published 2019).
Where two headings read alike, the source gives them in different places.

T1: Axl protein (human, UniProt P30530 26-451)
T1 construct: extracellular domain; also called human Axl; hAxl
T1 sequence (looked up): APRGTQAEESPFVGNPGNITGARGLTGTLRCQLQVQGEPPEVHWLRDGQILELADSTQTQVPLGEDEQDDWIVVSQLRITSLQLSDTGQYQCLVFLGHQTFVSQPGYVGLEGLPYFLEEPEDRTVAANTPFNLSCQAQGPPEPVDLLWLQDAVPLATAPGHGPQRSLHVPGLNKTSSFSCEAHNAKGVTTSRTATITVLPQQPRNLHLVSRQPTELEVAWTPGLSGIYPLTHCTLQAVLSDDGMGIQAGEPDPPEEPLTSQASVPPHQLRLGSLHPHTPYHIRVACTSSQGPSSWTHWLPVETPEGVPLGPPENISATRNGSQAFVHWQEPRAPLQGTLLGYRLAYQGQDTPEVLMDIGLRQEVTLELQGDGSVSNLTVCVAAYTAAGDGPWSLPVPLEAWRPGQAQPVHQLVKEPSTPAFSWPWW


Key:
Axl protein [1] = target: T1, Axl protein; assay: ELISA, 1:3 dilution, pH 6.0 over pH 7.4
Axl protein [2] = target: T1, Axl protein; assay: ELISA, 1:9 dilution, pH 6.0 over pH 7.4
Axl protein [3] = target: T1, Axl protein; assay: ELISA, 1:3 dilution, pH 6.0 over pH 7.4; remark: listed apart in the source
Axl protein [4] = target: T1, Axl protein; assay: ELISA, 1:9 dilution, pH 6.0 over pH 7.4; remark: listed apart in the source

Affinity ELISA CPE mutant ratio (1:3, pH 6.0/7.4) (Axl protein [1]) [ratio] | Affinity ELISA CPE mutant ratio (1:9, pH 6.0/7.4) (Axl protein [2]) [ratio] | Affinity ELISA CPE mutant ratio (1:3, pH 6.0/7.4) (Axl protein [3]) [ratio] | Affinity ELISA CPE mutant ratio (1:9, pH 6.0/7.4) (Axl protein [4]) [ratio] | Binder
2.88 | 2.68 |  |  | LC-V029D (antibody, V domains shown) VH: EVQLVQSGAEVKKPGATVKISCKVSGYSFTGHTMNWIRQPPGKGLEWIGLIKPSNGGTSYNQKFKGRVTISADKSISTAYLQWSSLKASDTAMYYCAHGHYESYFAMDYWGQGTLVTVSS VL: DIQMTQSPSSLSASVGDRVTITCKASQDDSSAVAWYQQKPGQAPRLLIYWASTRHTGVPSRFSGSGSGTEFTLTISSLQPDDFATYYCQEHFSTPLTFGQGTKVEIK
 |  | 3.29 | 3.06 | HC-A106Y (antibody, V domains shown) VH: EVQLVQSGAEVKKPGATVKISCKVSGYSFTGHTMNWIRQPPGKGLEWIGLIKPSNGGTSYNQKFKGRVTISADKSISTAYLQWSSLKASDTAMYYCAHGHYESYFYMDYWGQGTLVTVSS VL: DIQMTQSPSSLSASVGDRVTITCKASQDVSSAVAWYQQKPGQAPRLLIYWASTRHTGVPSRFSGSGSGTEFTLTISSLQPDDFATYYCQEHFSTPLTFGQGTKVEIK
 |  | 3.39 | 2.51 | HC-A106D (antibody, V domains shown) VH: EVQLVQSGAEVKKPGATVKISCKVSGYSFTGHTMNWIRQPPGKGLEWIGLIKPSNGGTSYNQKFKGRVTISADKSISTAYLQWSSLKASDTAMYYCAHGHYESYFDMDYWGQGTLVTVSS VL: DIQMTQSPSSLSASVGDRVTITCKASQDVSSAVAWYQQKPGQAPRLLIYWASTRHTGVPSRFSGSGSGTEFTLTISSLQPDDFATYYCQEHFSTPLTFGQGTKVEIK
 |  | 1.06 | 1.79 | HC-G111H (antibody, V domains shown) VH: EVQLVQSGAEVKKPGATVKISCKVSGYSFTGHTMNWIRQPPGKGLEWIGLIKPSNGGTSYNQKFKGRVTISADKSISTAYLQWSSLKASDTAMYYCAHGHYESYFAMDYWHQGTLVTVSS VL: DIQMTQSPSSLSASVGDRVTITCKASQDVSSAVAWYQQKPGQAPRLLIYWASTRHTGVPSRFSGSGSGTEFTLTISSLQPDDFATYYCQEHFSTPLTFGQGTKVEIK
 |  | 7.47 | 1.37 | HC-W110T (antibody, V domains shown) VH: EVQLVQSGAEVKKPGATVKISCKVSGYSFTGHTMNWIRQPPGKGLEWIGLIKPSNGGTSYNQKFKGRVTISADKSISTAYLQWSSLKASDTAMYYCAHGHYESYFAMDYTGQGTLVTVSS VL: DIQMTQSPSSLSASVGDRVTITCKASQDVSSAVAWYQQKPGQAPRLLIYWASTRHTGVPSRFSGSGSGTEFTLTISSLQPDDFATYYCQEHFSTPLTFGQGTKVEIK
 |  | 5.99 | 1.06 | HC-W110R (antibody, V domains shown) VH: EVQLVQSGAEVKKPGATVKISCKVSGYSFTGHTMNWIRQPPGKGLEWIGLIKPSNGGTSYNQKFKGRVTISADKSISTAYLQWSSLKASDTAMYYCAHGHYESYFAMDYRGQGTLVTVSS VL: DIQMTQSPSSLSASVGDRVTITCKASQDVSSAVAWYQQKPGQAPRLLIYWASTRHTGVPSRFSGSGSGTEFTLTISSLQPDDFATYYCQEHFSTPLTFGQGTKVEIK
 |  | 8.22 | 0.924 | HC-W110L (antibody, V domains shown) VH: EVQLVQSGAEVKKPGATVKISCKVSGYSFTGHTMNWIRQPPGKGLEWIGLIKPSNGGTSYNQKFKGRVTISADKSISTAYLQWSSLKASDTAMYYCAHGHYESYFAMDYLGQGTLVTVSS VL: DIQMTQSPSSLSASVGDRVTITCKASQDVSSAVAWYQQKPGQAPRLLIYWASTRHTGVPSRFSGSGSGTEFTLTISSLQPDDFATYYCQEHFSTPLTFGQGTKVEIK
 |  | 7.91 | 1.2 | HC-W110A (antibody, V domains shown) VH: EVQLVQSGAEVKKPGATVKISCKVSGYSFTGHTMNWIRQPPGKGLEWIGLIKPSNGGTSYNQKFKGRVTISADKSISTAYLQWSSLKASDTAMYYCAHGHYESYFAMDYAGQGTLVTVSS VL: DIQMTQSPSSLSASVGDRVTITCKASQDVSSAVAWYQQKPGQAPRLLIYWASTRHTGVPSRFSGSGSGTEFTLTISSLQPDDFATYYCQEHFSTPLTFGQGTKVEIK
 |  | 3.72 | 1.11 | HC-W110D (antibody, V domains shown) VH: EVQLVQSGAEVKKPGATVKISCKVSGYSFTGHTMNWIRQPPGKGLEWIGLIKPSNGGTSYNQKFKGRVTISADKSISTAYLQWSSLKASDTAMYYCAHGHYESYFAMDYDGQGTLVTVSS VL: DIQMTQSPSSLSASVGDRVTITCKASQDVSSAVAWYQQKPGQAPRLLIYWASTRHTGVPSRFSGSGSGTEFTLTISSLQPDDFATYYCQEHFSTPLTFGQGTKVEIK
 |  | 1.52 | 2.2 | HC-A106G (antibody, V domains shown) VH: EVQLVQSGAEVKKPGATVKISCKVSGYSFTGHTMNWIRQPPGKGLEWIGLIKPSNGGTSYNQKFKGRVTISADKSISTAYLQWSSLKASDTAMYYCAHGHYESYFGMDYWGQGTLVTVSS VL: DIQMTQSPSSLSASVGDRVTITCKASQDVSSAVAWYQQKPGQAPRLLIYWASTRHTGVPSRFSGSGSGTEFTLTISSLQPDDFATYYCQEHFSTPLTFGQGTKVEIK
 |  | 2.08 | 2.31 | HC-E102H (antibody, V domains shown) VH: EVQLVQSGAEVKKPGATVKISCKVSGYSFTGHTMNWIRQPPGKGLEWIGLIKPSNGGTSYNQKFKGRVTISADKSISTAYLQWSSLKASDTAMYYCAHGHYHSYFAMDYWGQGTLVTVSS VL: DIQMTQSPSSLSASVGDRVTITCKASQDVSSAVAWYQQKPGQAPRLLIYWASTRHTGVPSRFSGSGSGTEFTLTISSLQPDDFATYYCQEHFSTPLTFGQGTKVEIK
 |  | 6.49 | 2.15 | HC-W110P (antibody, V domains shown) VH: EVQLVQSGAEVKKPGATVKISCKVSGYSFTGHTMNWIRQPPGKGLEWIGLIKPSNGGTSYNQKFKGRVTISADKSISTAYLQWSSLKASDTAMYYCAHGHYESYFAMDYPGQGTLVTVSS VL: DIQMTQSPSSLSASVGDRVTITCKASQDVSSAVAWYQQKPGQAPRLLIYWASTRHTGVPSRFSGSGSGTEFTLTISSLQPDDFATYYCQEHFSTPLTFGQGTKVEIK
 |  | 2.16 | 1.36 | HC-M107E (antibody, V domains shown) VH: EVQLVQSGAEVKKPGATVKISCKVSGYSFTGHTMNWIRQPPGKGLEWIGLIKPSNGGTSYNQKFKGRVTISADKSISTAYLQWSSLKASDTAMYYCAHGHYESYFAEDYWGQGTLVTVSS VL: DIQMTQSPSSLSASVGDRVTITCKASQDVSSAVAWYQQKPGQAPRLLIYWASTRHTGVPSRFSGSGSGTEFTLTISSLQPDDFATYYCQEHFSTPLTFGQGTKVEIK
 |  | 2.08 | 2.36 | HC-E102M (antibody, V domains shown) VH: EVQLVQSGAEVKKPGATVKISCKVSGYSFTGHTMNWIRQPPGKGLEWIGLIKPSNGGTSYNQKFKGRVTISADKSISTAYLQWSSLKASDTAMYYCAHGHYMSYFAMDYWGQGTLVTVSS VL: DIQMTQSPSSLSASVGDRVTITCKASQDVSSAVAWYQQKPGQAPRLLIYWASTRHTGVPSRFSGSGSGTEFTLTISSLQPDDFATYYCQEHFSTPLTFGQGTKVEIK
 |  | 21.5 | 1.61 | HC-A106L (antibody, V domains shown) VH: EVQLVQSGAEVKKPGATVKISCKVSGYSFTGHTMNWIRQPPGKGLEWIGLIKPSNGGTSYNQKFKGRVTISADKSISTAYLQWSSLKASDTAMYYCAHGHYESYFLMDYWGQGTLVTVSS VL: DIQMTQSPSSLSASVGDRVTITCKASQDVSSAVAWYQQKPGQAPRLLIYWASTRHTGVPSRFSGSGSGTEFTLTISSLQPDDFATYYCQEHFSTPLTFGQGTKVEIK
 |  | 20.6 | 1.09 | HC-M107F (antibody, V domains shown) VH: EVQLVQSGAEVKKPGATVKISCKVSGYSFTGHTMNWIRQPPGKGLEWIGLIKPSNGGTSYNQKFKGRVTISADKSISTAYLQWSSLKASDTAMYYCAHGHYESYFAFDYWGQGTLVTVSS VL: DIQMTQSPSSLSASVGDRVTITCKASQDVSSAVAWYQQKPGQAPRLLIYWASTRHTGVPSRFSGSGSGTEFTLTISSLQPDDFATYYCQEHFSTPLTFGQGTKVEIK
 |  | 4.3 | 0.8 | HC-W110N (antibody, V domains shown) VH: EVQLVQSGAEVKKPGATVKISCKVSGYSFTGHTMNWIRQPPGKGLEWIGLIKPSNGGTSYNQKFKGRVTISADKSISTAYLQWSSLKASDTAMYYCAHGHYESYFAMDYNGQGTLVTVSS VL: DIQMTQSPSSLSASVGDRVTITCKASQDVSSAVAWYQQKPGQAPRLLIYWASTRHTGVPSRFSGSGSGTEFTLTISSLQPDDFATYYCQEHFSTPLTFGQGTKVEIK
